Measurements taken from patent US20120225437A1.

Target: Rat MBL-A (mannan-binding lectin A) (rat) (UniProt P19999)
Test: SPR, MBL immobilised, MASP-1 at 100 nM, equivalent concentrations of NaCl up to 550 mM

percent of maximal binding in the presence of NaCl (ionic strength control): > 60%
Substance: MASP-1ent, modified form of rat MASP-1 in which the zymogen cleavage site has been replaced by an enterokinase recognition site (DDDDK) (from UniProt Q8CHN8 25-704) (enzyme)
